US20080311122A1 (AstraZeneca / MedImmune, published 2008)
One block for each binder: values may come before it.

What was measured:
[1] = target: T1, HMGB1 B-box peptide 108-138 (UniProt P09429 108-138, biotinylated); test: ELISA, biotinylated peptides on avidin plate
T1 peptide (looked up): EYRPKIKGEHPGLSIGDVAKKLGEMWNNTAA
Procedure: (§1) The plate was then blocked with 4% milk powder dissolved in PBS at 37° C. for 1 hour. The blocking solution was removed and replaced with human anti-HMG1 antibodies at various concentrations (see FIGS. 5A-B). […] HRP activity was detected with Sureblue HRP substrate (KPL). Plates were read at 450 nm using a Kinetic Microplate Reader (Molecular Devices). […] After washing and blocking with 1% BSA in PBS, the biotinylated peptides were individually added into the avidin coated wells and incubated for 30 min at room temperature. The serial diluted antibody G4, S16 and S6 at the initial concentration at 10 μg/ml were then transferred into the wells followed by adding mouse anti human IgG-HRP conjugate (Pierce). Detection was accomplished by adding 50 μl of tetramethylbenzidine (TMB) substrate (KPL) and the absorbance was read at […].

[2] = target: T2, HMGB1 C-terminal tail peptide 188-215 (human, biotinylated); test: ELISA, biotinylated peptides on avidin plate
T2 peptide: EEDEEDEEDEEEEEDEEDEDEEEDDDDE
Procedure: as §1

[3] = target: T3, HMGB1 in sera of septic peritonitis mice (mouse, UniProt P63158 1-215); test: sandwich ELISA: antibody (10 ug/ml) captured on anti-human Fc, sample added, mouse anti-HMGB1 and anti-mouse-HRP, OD 450
T3 construct: also called HMGB1 from sepsis sera (ELISA); peritonitis sera
T3 sequence (looked up): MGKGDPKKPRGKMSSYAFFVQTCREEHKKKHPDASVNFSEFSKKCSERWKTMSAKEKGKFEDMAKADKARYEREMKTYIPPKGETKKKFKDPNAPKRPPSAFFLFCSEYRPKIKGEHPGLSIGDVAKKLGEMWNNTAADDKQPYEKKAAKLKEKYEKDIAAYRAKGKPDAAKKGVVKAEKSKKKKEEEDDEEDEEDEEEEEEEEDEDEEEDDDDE
Procedure: HMGB1 Detection from Biological Samples: For detection of the HMGB1 from AA joint homogenates and peritonitis sera, sandwich ELISA was performed. Goat anti-human Fc (Pierce) 14 μg/ml in PBS was coated on Immunlon IV microtiter plate over night at 4° C. After washing and blocking with 5% milk 1 hr at room temperature, G4 or S6 in blocking buffer (10 μg/ml) were added to each well of the blocked plate. The plate was washed 1 hour later and 25 μl of AIA homogenates containing 0.8 μg/ml of HMGB1 or peritonitis sera containing 7 μg/ml of HMGB1 in 0.5 M NaCl/blocking buffer were added to the wells at two fold serial dilutions. The unbound materials were removed by washing one hr after incubation. The bound HMGB1 was detected by a mouse anti-HMGB1 antibody at 2 μg/ml followed by an anti-mouse antibody conjugated with horseradish peroxidase. Mouse peritonitis sera was obtained by heart puncture 7 days after infection with heat killed staphylococcus aureus. Joint lysate was prepared from the whole paw of AIA rats as described in Example 6 below. Human sepsis sera were purchased from a commercial source.

[4] = target: T4, HMGB1 in joint lysates of adjuvant induced arthritis (AIA) rats (rat, UniProt P63159 2-215); test: immunoprecipitation from AIA rat joint lysate, Western blot probed with biotinylated S16 (the method names G4, S6 and isotype control, the legend names S16 for lane 2)
T4 construct: also called HMGB1 from arthritis joints; AA joint lysates
T4 sequence (looked up): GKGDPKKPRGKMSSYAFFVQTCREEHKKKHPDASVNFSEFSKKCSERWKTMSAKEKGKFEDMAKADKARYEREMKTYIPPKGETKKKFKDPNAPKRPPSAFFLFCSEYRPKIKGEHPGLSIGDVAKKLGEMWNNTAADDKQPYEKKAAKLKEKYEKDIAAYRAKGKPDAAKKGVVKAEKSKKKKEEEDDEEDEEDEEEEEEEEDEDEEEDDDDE
Procedure: Immunoprecipitation and Western Blot: Anti-HMGB1 mAbs (G4 and S6) and isotype control were first biotinylated using EZ-Link Sulfo-NHS-LC-Biotin as instructed by the manufacturer (Pierce). After labeling, the mAb was tested for binding to HMGB1 by ELISA with unlabeled mAbs as controls. The biological samples, joint lysate (30 μl), was mixed with […] biotinylated G4, S6 or isotype control overnight at 4° C. in 300 μl IP buffer [containing 1×PBS, pH 7.2 (Invitrogen), 0.1% Tween 20, 0.5 M sodium chloride, 10 mM sodium butyrate, and a 1:100 dilution of Phosphatase Inhibitor Cocktail I (Sigma)]. For sepsis sera, Tween 20, sodium chloride, sodium butyrate, and Phosphatase Inhibitor Cocktail I were added to 500 μl sera with the same final concentration as IP buffer. Streptavidin Sepharose beads (GE Healthcare) were blocked in 4% BSA-PBS overnight at 4° C., then washed three times with PBS and resuspended in 1×PBS resulting in 50% slurry. The bead slurry (60 μl) was then added to the overnight mAb/sample mixture and mixed for 20 minutes at room temperature. The beads were washed once with PBS, five times with IP Buffer and then washed twice with PBS by spinning at 1000 g for two min. […] The bands were detected by LumiGlo substrate solution (KPL) after washing.

B1: anti-HMG1 antibody G4 (antibody, V domains shown)
VH: EVQLLESGGGLVQPGGSLRLSCAASGFTFSWYDMTWVRQAPGKGLEWVSSISPSGGYTKYADSVKGRFTISRDNSKNTLYLQMNSLRAEDTAVYYCTTEFYDYLDVWGKGTTVTVSS
VL: DIQMTQSPGTLSLSPGEGATLSCRASQSVSSTYLAWYQQKPGQAPRLLIYEASKRATGTPARFSGSGSGTDFTLSISSLEPEDFAVYYCQHRHNWPPQWTFGQGTKVEVK
notes: also called ATCC PTA-6258
binding result [1]: binds
binding result [2]: binds

binding result [3]: binds
B2: anti-HMG1 antibody S6 (antibody, V domains shown)
VH: EVQLLESGGGLVQPGGSLRLSCAASGFTFSWYDMSWVRQAPGKGLEWVSRISPSGGYTMYADSVKGRFTISRDNSKNTLYLQMNSLRAEDTAVYYCARLEVGATSGGTAFDIWGQGTMVTVSS
VL: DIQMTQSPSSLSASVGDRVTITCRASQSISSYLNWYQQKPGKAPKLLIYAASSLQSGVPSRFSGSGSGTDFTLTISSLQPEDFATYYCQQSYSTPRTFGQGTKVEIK
notes: also called ATCC PTA-6143

binding result [4]: binds
B3: anti-HMG1 antibody S16 (antibody, V domains shown)
VH: EVQLLESGGGLVQPGGSLRLSCAASGFTFSWYSMLWVRQAPGKGLEWVSYISPSGGFTNYADSVKGRFTISRDNSKNTLYLQMNSLRAEDTAVYYCARWDYNSGWYYDHWGQGTLVTVSS
VL: DIQMTQSPDTLSLSPGERATLSCRASQSVNSRNLAWYQQKPGQAPRLLIYGASTRATGIPDRFSGSVSGTEFTLTISSLQPDDFATYYCQQYNSYFTFGQGTKLEIK
notes: also called ATCC PTA-6259
